Data published in publication PMC5014651.

B1: 16-bp dsRNA (dsRNA)
RNA 1: CGCCUGUAGAGGAUGG
RNA 2: CCAUCCUCUACAGGCG

Columns and labels:
[1] = target: NS1B C-terminal domain (residues 141-281 of NS1B, influenza B/Lee/1940) (influenza B virus (B/lee/1940)) (UniProt P03502); assay: NMR rotational correlation time
[2] = target: NS1B C-terminal domain (residues 141-281 of NS1B, influenza B/Lee/1940) (influenza B virus (B/lee/1940)) (UniProt P03502); assay: NMR titration
[3] = target: NS1A CTD (Influenza A virus (Udorn), UniProt P03495 85-215); assay: fluorescence polarization
[4] = target: T1, NS1B CTD wt (Influenza B virus (B/Lee/1940), UniProt P03502 141-281); assay: fluorescence polarization
T1 sequence: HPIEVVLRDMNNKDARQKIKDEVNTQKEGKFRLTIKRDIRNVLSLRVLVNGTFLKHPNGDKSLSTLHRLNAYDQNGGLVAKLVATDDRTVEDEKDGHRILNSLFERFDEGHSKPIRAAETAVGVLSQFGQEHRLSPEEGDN

NS1A CTD, sequence (P03495 85-215): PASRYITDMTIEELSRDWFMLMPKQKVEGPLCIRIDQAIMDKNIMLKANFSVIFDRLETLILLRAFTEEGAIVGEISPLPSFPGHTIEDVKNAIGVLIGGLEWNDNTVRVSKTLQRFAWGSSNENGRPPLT

Molecule	Kd [1] [µM]	stoichiometry N [1]	Kd [2] [µM]	binding result [3]	Kd [4] [nM]
NS1B C-terminal domain (residues 141-281 of NS1B, influenza B/Lee/1940) (from UniProt P03502 141-281) (domain or fragment)	700	2	600		
B1				no binding	130 ± 30
CGCCUGUAGAGGAUGG (ssRNA) [16 minus ssRNA (antisense)]					580 ± 50
